The subject of data set [1] is RNA polymerase holoenzyme Esigma38 (Escherichia coli). Nature of the data set: EMSA. Particulars: 1 uM Rsd; binding buffer, salt, pH and temperature not given in the material; heparin competitor in NAP footprints. Background: In EMSA bound probe runs differently from free probe, usually more slowly.
Data set [2] concerns the molecule itself. Nature of the data set: cross-linking; 3 µg Rsd with 3 µg σ^70, σ^38 or Rsd (or each protein alone), 30 minutes in 15 µl 50 mM HEPES pH 7.4, 5% glycerol, 0.1 mM EDTA, 0.1 mM DTT; 0.02% glutaraldehyde, room temperature 30 minutes; SDS gel, Coomassie staining.
Data set [3] addresses T1, RNA polymerase sigma factor σ^70 (E. coli, UniProt P00579 1-613).
T1 construct: RNA polymerase sigma factor σ^70 (RpoD), E. coli; also called free σ^70; sigma D
The description is as above. The conditions noted are these: both partners purified.

Data set [4] deals with T2, RNA polymerase sigma factor σ^38 (E. coli, UniProt P13445 1-330).
T2 construct: stationary phase-specific sigma factor σ^38 (RpoS), E. coli; also called σ^s; RpoS
T2 sequence (P13445 whole entry): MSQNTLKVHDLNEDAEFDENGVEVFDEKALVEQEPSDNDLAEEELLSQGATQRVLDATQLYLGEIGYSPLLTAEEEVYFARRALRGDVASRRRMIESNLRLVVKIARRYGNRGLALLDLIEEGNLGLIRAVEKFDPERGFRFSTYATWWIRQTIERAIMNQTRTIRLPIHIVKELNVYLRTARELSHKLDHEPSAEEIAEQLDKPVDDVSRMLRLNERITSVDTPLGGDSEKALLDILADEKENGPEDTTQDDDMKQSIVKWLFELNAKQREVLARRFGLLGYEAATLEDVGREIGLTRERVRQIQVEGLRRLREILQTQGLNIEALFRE
Nature of the data set: pull-down; biotinylated Rsd incubated with the protein of interest (molar ratios 1:1 or 1:3) for 1 hour in TGED buffer on ice, held on Streptavidine MicroBeads column, four washes, elution with SDS buffer; SDS gel, Coomassie and silver staining. Particulars: both partners purified.

The target of data set [5] is T1, RNA polymerase sigma factor σ^70. Described as above. The conditions noted are these: both partners purified.

The stoichiometry N is a count of units in the complex or per binding partner.

T1 sequence (P00579 whole entry): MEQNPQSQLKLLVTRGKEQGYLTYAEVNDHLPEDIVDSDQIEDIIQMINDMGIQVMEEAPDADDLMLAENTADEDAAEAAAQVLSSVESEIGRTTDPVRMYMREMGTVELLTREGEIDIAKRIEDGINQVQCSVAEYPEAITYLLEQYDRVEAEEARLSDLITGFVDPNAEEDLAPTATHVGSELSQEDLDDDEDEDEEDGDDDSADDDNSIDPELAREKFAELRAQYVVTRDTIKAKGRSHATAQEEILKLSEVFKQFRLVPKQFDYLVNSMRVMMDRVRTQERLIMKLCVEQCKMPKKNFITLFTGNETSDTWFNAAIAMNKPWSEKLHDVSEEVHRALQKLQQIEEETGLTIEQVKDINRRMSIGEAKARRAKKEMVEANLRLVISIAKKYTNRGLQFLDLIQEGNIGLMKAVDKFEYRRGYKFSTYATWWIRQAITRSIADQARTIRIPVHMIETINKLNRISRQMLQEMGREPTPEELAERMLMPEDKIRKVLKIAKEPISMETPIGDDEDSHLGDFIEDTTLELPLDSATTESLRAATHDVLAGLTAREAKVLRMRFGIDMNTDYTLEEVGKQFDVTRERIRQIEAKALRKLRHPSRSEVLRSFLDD

In the case of fic promoter fragment, in data set [1], the binding signal (% of complex remaining) stood at 50.

B1: Rsd (regulator of sigma D), native protein (natural protein, E. coli, UniProt P0AFX4 1-158, looked up)
chain: MLNQLDNLTERVRGSNKLVDRWLHVRKHLLVAYYNLVGIKPGKESYMRLNEKALDDFCQSLVDYLSAGHFSIYERILHKLEGNGQLARAAKIWPQLEANTQQIMDYYDSSLETAIDHDNYLEFQQVLSDIGEALEARFVLEDKLILLVLDAARVKHPA
notes: Rsd (regulator of sigma D), E. coli; No tag is mentioned; also called native Rsd; anti-sigma factor Rsd; source: E. coli BL21DE3pLysS/pUC18-Rsd, purified (DEAE-Sephadex A25, P11-phosphocellulose, NH4SO4 precipitation)
In the case of B1, the “stoichiometry N” value in data set [2] worked out at 2. For the same molecule, the binding result in data set [3] is given as “binds”.

B2: Biotinylated Rsd (natural protein, E. coli, UniProt P0AFX4 1-158, looked up)
chain: MLNQLDNLTERVRGSNKLVDRWLHVRKHLLVAYYNLVGIKPGKESYMRLNEKALDDFCQSLVDYLSAGHFSIYERILHKLEGNGQLARAAKIWPQLEANTQQIMDYYDSSLETAIDHDNYLEFQQVLSDIGEALEARFVLEDKLILLVLDAARVKHPA
modifications: biotin (9 fold excess of Biotinyl-N-hydroxy-succinimide; modified residues not stated)
notes: Rsd (regulator of sigma D), E. coli; Held on Streptavidine MicroBeads through the biotin; also called Biotinylated-Rsd protein; immobilized Rsd; source: E. coli BL21DE3pLysS/pUC18-Rsd, purified, then biotinylated with Biotinyl-N-hydroxy-succinimide
With B2, the binding result in data set [4] and in data set [5] was “binds” in each case.

The values are drawn from publication PMC3089606, “The E. coli Anti-Sigma Factor Rsd: Studies on the Specificity and Regulation of Its Expression” (PLoS ONE, 2011).
